B1: empty prey pADGal4 vector (Gal4 activation domain alone) (other, UniProt P04386 761-881, looked up)
chain: PSALFGGANFNQSGNIADSSLSFTFTNSSNGPNLITTQTNSQALSQPIASSNVHDNFMNNEITASKIDDGNNSKPLSPGWTDQTAYNAFGITTGMFNTTTMDDVYNYLFDDEDTPPNPKKE
notes: Negative control in the yeast two-hybrid assay
B2: empty pBDGal4 vector (Gal4 binding domain alone) (other, UniProt P04386 1-148, looked up)
chain: MKLLSSIEQACDICRLKKLKCSKEKPKCAKCLKNNWECRYSPKTKRSPLTRAHLTEVESRLERLEQLFLLIFPREDLDMILKMDSLQDIKALLTGLFVQDNVNKDAVTDRLASVETDMPLTLRQHRISATSSSEESSNKGQRQLTVSI
notes: as for B1

Key:
[1] = biological target: T1, rice cyclin-dependent kinase Cdc2-Os1 (rice, UniProt P29618 1-294); assay: yeast two-hybrid, Cdc2-Os1 in bait pBDGal4 with empty prey pADGal4
T1 construct: The Gal4 parts are not written into the chain
T1 sequence (P29618 whole entry, the tested form may be a part): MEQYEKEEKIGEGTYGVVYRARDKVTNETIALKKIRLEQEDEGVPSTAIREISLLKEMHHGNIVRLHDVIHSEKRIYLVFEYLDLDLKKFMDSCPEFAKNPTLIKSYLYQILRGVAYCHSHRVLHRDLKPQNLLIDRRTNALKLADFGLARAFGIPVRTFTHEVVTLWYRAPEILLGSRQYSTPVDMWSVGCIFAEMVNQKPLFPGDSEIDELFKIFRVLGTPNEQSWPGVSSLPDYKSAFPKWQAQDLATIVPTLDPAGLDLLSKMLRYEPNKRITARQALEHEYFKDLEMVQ
Source text: (§1) The interactions of OsICK2 and OsICK4 with Cdc2-Os1 and CycD3-Os (the rice cyclin D3) were verified using a yeast two hybrid approach. In a preliminary step, yeast strain PJ69-4A (MATa trp1-901 leu2-3,112 ura3-52 his3-200 gal4(deleted) gal80(deleted) LYS2::GAL1-HIS3 GAL2-ADE2 met2::GAL7-lacZ) was transformed with Cdc2-Os1 in bait vector pBDGal4 (Stratagene), using the lithium acetate method, well known to those skilled in the art. The rice Cdc2-Os1 was previously obtained by PCR as described in Example 1. The Cdc2-Os1 was also cloned in the pADGal4 prey vector. The junctions between the pBDGal4 binding domain and the pADGal4 activation domain and the Cdc2-Os1 fragment were sequenced to verify correct in-frame fusion.
(§2) Two putative positive clones were identified. A second round of screening on these clones was performed. Pure positive plaques were isolated and phagemids were excised therefrom. Sequencing of the two clones reveiled that the clones were identical with a full length size of 1.7 kb. The clones contain an ORF of 1140 bp encoding a protein of 380 amino acids. This protein is designated cyclin D3 from rice (CycD3-Os). […]
(§3) As positive controls, growth was assessed in yeast containing the prey vector pADGal4 with Cdc2-Os1 and retransformed with the bait vector pBDGal4 containing OsICK2 or CycD3-Os. […]

[2] = biological target: T2, full-length rice OsICK2 protein (Oryza sativa, UniProt A2X9W8 1-262); assay: yeast two-hybrid, OsICK2 in bait pBDGal4 with empty prey pADGal4
T2 construct: The Gal4 parts are not written into the chain; Form 'mature' here means the full-length protein; also called Os2
T2 sequence: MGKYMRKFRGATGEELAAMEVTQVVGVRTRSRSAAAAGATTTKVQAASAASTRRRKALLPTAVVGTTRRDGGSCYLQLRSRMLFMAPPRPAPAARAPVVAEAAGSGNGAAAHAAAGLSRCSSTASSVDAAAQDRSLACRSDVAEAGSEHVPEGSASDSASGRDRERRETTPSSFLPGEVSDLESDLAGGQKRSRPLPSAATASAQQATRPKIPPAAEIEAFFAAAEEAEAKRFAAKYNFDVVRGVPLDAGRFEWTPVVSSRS
Source text: as §1, §2, §3

[3] = biological target: T2, full-length rice OsICK2 protein; assay: yeast two-hybrid, OsICK2 in prey pADGal4 with empty pBDGal4
Source text: as §1, §2, §3

[4] = biological target: T1, rice cyclin-dependent kinase Cdc2-Os1; assay: yeast two-hybrid, Cdc2-Os1 in prey pADGal4 with empty pBDGal4
Source text: as §1, §2, §3

| Binder | binding result [1] | binding result [2] | binding result [3] | binding result [4] |
| --- | --- | --- | --- | --- |
| B1 | no binding | no binding | – | – |
| B2 | – | – | no binding | no binding |
